Laboratory results published in US20260167699A1 (Chugai, published 2026).

What follows are binders tested against T1, FcγRIIIa extracellular domain, C-terminal His tag (human, UniProt P08637 17-208) (assay: SPR, binding activity relative to GpH7-A5/GpH7-B3/GpL16-k0 (=100)).
T1 construct: extracellular domain; also called 3a
T1 sequence (P08637 other isoform, or with tags, fused parts or gaps): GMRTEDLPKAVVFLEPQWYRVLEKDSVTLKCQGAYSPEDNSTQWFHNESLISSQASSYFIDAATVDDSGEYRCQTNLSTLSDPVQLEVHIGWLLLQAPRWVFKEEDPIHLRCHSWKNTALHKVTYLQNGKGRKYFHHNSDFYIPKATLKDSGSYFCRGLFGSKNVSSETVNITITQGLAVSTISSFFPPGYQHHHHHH

Row | He/Con 3a | Binder
1 | 95.6% | GpH7-A5/GpH7-B3 variant I332_13S/GpL16-k0 (antibody, human IgG1, kappa, He Ab; copies: 1 + 1 + 2) heavy 1: not shown heavy 2: not shown light: DIVMTQSPLSLPVTPGEPASISCQASESLVHSNRNTYLHWYLQKPGQSPQLLIYKVSNRFSGVPDRFSGSGSGTDFTLKISRVEAEDVGVYYCSQNTHVPPTFGQGTKVEIERTVAAPSVFIFPPSDEQLKSGTASVVCLLNNFYPREAKVQWKVDNALQSGNSQESVTEQDSKDSTYSLSSTLTLSKADYEKHKVYACEVTHQGLSSPVTKSFNRGEC
2 | 138% | GpH7-A5/GpH7-B3 variant K326_10E/GpL16-k0 (antibody, human IgG1, kappa, He Ab; copies: 1 + 1 + 2) heavy 1: not shown heavy 2: not shown light: DIVMTQSPLSLPVTPGEPASISCQASESLVHSNRNTYLHWYLQKPGQSPQLLIYKVSNRFSGVPDRFSGSGSGTDFTLKISRVEAEDVGVYYCSQNTHVPPTFGQGTKVEIERTVAAPSVFIFPPSDEQLKSGTASVVCLLNNFYPREAKVQWKVDNALQSGNSQESVTEQDSKDSTYSLSSTLTLSKADYEKHKVYACEVTHQGLSSPVTKSFNRGEC
3 | 89% | GpH7-A5/GpH7-B3 variant I332_16H/GpL16-k0 (antibody, human IgG1, kappa, He Ab; copies: 1 + 1 + 2) heavy 1: not shown heavy 2: not shown light: DIVMTQSPLSLPVTPGEPASISCQASESLVHSNRNTYLHWYLQKPGQSPQLLIYKVSNRFSGVPDRFSGSGSGTDFTLKISRVEAEDVGVYYCSQNTHVPPTFGQGTKVEIERTVAAPSVFIFPPSDEQLKSGTASVVCLLNNFYPREAKVQWKVDNALQSGNSQESVTEQDSKDSTYSLSSTLTLSKADYEKHKVYACEVTHQGLSSPVTKSFNRGEC
4 | 124% | GpH7-A5/GpH7-B3 variant K326_15Y/GpL16-k0 (antibody, human IgG1, kappa, He Ab; copies: 1 + 1 + 2) heavy 1: not shown heavy 2: not shown light: DIVMTQSPLSLPVTPGEPASISCQASESLVHSNRNTYLHWYLQKPGQSPQLLIYKVSNRFSGVPDRFSGSGSGTDFTLKISRVEAEDVGVYYCSQNTHVPPTFGQGTKVEIERTVAAPSVFIFPPSDEQLKSGTASVVCLLNNFYPREAKVQWKVDNALQSGNSQESVTEQDSKDSTYSLSSTLTLSKADYEKHKVYACEVTHQGLSSPVTKSFNRGEC
5 | 114% | GpH7-A5/GpH7-B3 variant K326_04F/GpL16-k0 (antibody, human IgG1, kappa, He Ab; copies: 1 + 1 + 2) heavy 1: not shown heavy 2: not shown light: DIVMTQSPLSLPVTPGEPASISCQASESLVHSNRNTYLHWYLQKPGQSPQLLIYKVSNRFSGVPDRFSGSGSGTDFTLKISRVEAEDVGVYYCSQNTHVPPTFGQGTKVEIERTVAAPSVFIFPPSDEQLKSGTASVVCLLNNFYPREAKVQWKVDNALQSGNSQESVTEQDSKDSTYSLSSTLTLSKADYEKHKVYACEVTHQGLSSPVTKSFNRGEC
6 | 127% | GpH7-A5/GpH7-B3 variant K326_06M/GpL16-k0 (antibody, human IgG1, kappa, He Ab; copies: 1 + 1 + 2) heavy 1: not shown heavy 2: not shown light: DIVMTQSPLSLPVTPGEPASISCQASESLVHSNRNTYLHWYLQKPGQSPQLLIYKVSNRFSGVPDRFSGSGSGTDFTLKISRVEAEDVGVYYCSQNTHVPPTFGQGTKVEIERTVAAPSVFIFPPSDEQLKSGTASVVCLLNNFYPREAKVQWKVDNALQSGNSQESVTEQDSKDSTYSLSSTLTLSKADYEKHKVYACEVTHQGLSSPVTKSFNRGEC
7 | 134% | GpH7-A5/GpH7-B3 variant K326_18N/GpL16-k0 (antibody, human IgG1, kappa, He Ab; copies: 1 + 1 + 2) heavy 1: not shown heavy 2: not shown light: DIVMTQSPLSLPVTPGEPASISCQASESLVHSNRNTYLHWYLQKPGQSPQLLIYKVSNRFSGVPDRFSGSGSGTDFTLKISRVEAEDVGVYYCSQNTHVPPTFGQGTKVEIERTVAAPSVFIFPPSDEQLKSGTASVVCLLNNFYPREAKVQWKVDNALQSGNSQESVTEQDSKDSTYSLSSTLTLSKADYEKHKVYACEVTHQGLSSPVTKSFNRGEC
8 | 106% | GpH7-A5/GpH7-B3 variant K326_16H/GpL16-k0 (antibody, human IgG1, kappa, He Ab; copies: 1 + 1 + 2) heavy 1: not shown heavy 2: not shown light: DIVMTQSPLSLPVTPGEPASISCQASESLVHSNRNTYLHWYLQKPGQSPQLLIYKVSNRFSGVPDRFSGSGSGTDFTLKISRVEAEDVGVYYCSQNTHVPPTFGQGTKVEIERTVAAPSVFIFPPSDEQLKSGTASVVCLLNNFYPREAKVQWKVDNALQSGNSQESVTEQDSKDSTYSLSSTLTLSKADYEKHKVYACEVTHQGLSSPVTKSFNRGEC
9 | 148% | GpH7-A5/GpH7-B3 variant K326_09D/GpL16-k0 (antibody, human IgG1, kappa, He Ab; copies: 1 + 1 + 2) heavy 1: not shown heavy 2: not shown light: DIVMTQSPLSLPVTPGEPASISCQASESLVHSNRNTYLHWYLQKPGQSPQLLIYKVSNRFSGVPDRFSGSGSGTDFTLKISRVEAEDVGVYYCSQNTHVPPTFGQGTKVEIERTVAAPSVFIFPPSDEQLKSGTASVVCLLNNFYPREAKVQWKVDNALQSGNSQESVTEQDSKDSTYSLSSTLTLSKADYEKHKVYACEVTHQGLSSPVTKSFNRGEC
10 | 117% | GpH7-A5/GpH7-B3 variant K326_19Q/GpL16-k0 (antibody, human IgG1, kappa, He Ab; copies: 1 + 1 + 2) heavy 1: not shown heavy 2: not shown light: DIVMTQSPLSLPVTPGEPASISCQASESLVHSNRNTYLHWYLQKPGQSPQLLIYKVSNRFSGVPDRFSGSGSGTDFTLKISRVEAEDVGVYYCSQNTHVPPTFGQGTKVEIERTVAAPSVFIFPPSDEQLKSGTASVVCLLNNFYPREAKVQWKVDNALQSGNSQESVTEQDSKDSTYSLSSTLTLSKADYEKHKVYACEVTHQGLSSPVTKSFNRGEC
11 | 130% | GpH7-A5/GpH7-B3 variant K326_02A/GpL16-k0 (antibody, human IgG1, kappa, He Ab; copies: 1 + 1 + 2) heavy 1: not shown heavy 2: not shown light: DIVMTQSPLSLPVTPGEPASISCQASESLVHSNRNTYLHWYLQKPGQSPQLLIYKVSNRFSGVPDRFSGSGSGTDFTLKISRVEAEDVGVYYCSQNTHVPPTFGQGTKVEIERTVAAPSVFIFPPSDEQLKSGTASVVCLLNNFYPREAKVQWKVDNALQSGNSQESVTEQDSKDSTYSLSSTLTLSKADYEKHKVYACEVTHQGLSSPVTKSFNRGEC
12 | 117% | GpH7-A5/GpH7-B3 variant K326_05P/GpL16-k0 (antibody, human IgG1, kappa, He Ab; copies: 1 + 1 + 2) heavy 1: not shown heavy 2: not shown light: DIVMTQSPLSLPVTPGEPASISCQASESLVHSNRNTYLHWYLQKPGQSPQLLIYKVSNRFSGVPDRFSGSGSGTDFTLKISRVEAEDVGVYYCSQNTHVPPTFGQGTKVEIERTVAAPSVFIFPPSDEQLKSGTASVVCLLNNFYPREAKVQWKVDNALQSGNSQESVTEQDSKDSTYSLSSTLTLSKADYEKHKVYACEVTHQGLSSPVTKSFNRGEC
13 | 101% | GpH7-A5/GpH7-B3 variant K326_12R/GpL16-k0 (antibody, human IgG1, kappa, He Ab; copies: 1 + 1 + 2) heavy 1: not shown heavy 2: not shown light: DIVMTQSPLSLPVTPGEPASISCQASESLVHSNRNTYLHWYLQKPGQSPQLLIYKVSNRFSGVPDRFSGSGSGTDFTLKISRVEAEDVGVYYCSQNTHVPPTFGQGTKVEIERTVAAPSVFIFPPSDEQLKSGTASVVCLLNNFYPREAKVQWKVDNALQSGNSQESVTEQDSKDSTYSLSSTLTLSKADYEKHKVYACEVTHQGLSSPVTKSFNRGEC
14 | 153% | GpH7-A5/GpH7-B3 variant K326_07I/GpL16-k0 (antibody, human IgG1, kappa, He Ab; copies: 1 + 1 + 2) heavy 1: not shown heavy 2: not shown light: DIVMTQSPLSLPVTPGEPASISCQASESLVHSNRNTYLHWYLQKPGQSPQLLIYKVSNRFSGVPDRFSGSGSGTDFTLKISRVEAEDVGVYYCSQNTHVPPTFGQGTKVEIERTVAAPSVFIFPPSDEQLKSGTASVVCLLNNFYPREAKVQWKVDNALQSGNSQESVTEQDSKDSTYSLSSTLTLSKADYEKHKVYACEVTHQGLSSPVTKSFNRGEC
15 | 126% | GpH7-A5/GpH7-B3 variant K326_08L/GpL16-k0 (antibody, human IgG1, kappa, He Ab; copies: 1 + 1 + 2) heavy 1: not shown heavy 2: not shown light: DIVMTQSPLSLPVTPGEPASISCQASESLVHSNRNTYLHWYLQKPGQSPQLLIYKVSNRFSGVPDRFSGSGSGTDFTLKISRVEAEDVGVYYCSQNTHVPPTFGQGTKVEIERTVAAPSVFIFPPSDEQLKSGTASVVCLLNNFYPREAKVQWKVDNALQSGNSQESVTEQDSKDSTYSLSSTLTLSKADYEKHKVYACEVTHQGLSSPVTKSFNRGEC
16 | 118% | GpH7-A5/GpH7-B3 variant K326_13S/GpL16-k0 (antibody, human IgG1, kappa, He Ab; copies: 1 + 1 + 2) heavy 1: not shown heavy 2: not shown light: DIVMTQSPLSLPVTPGEPASISCQASESLVHSNRNTYLHWYLQKPGQSPQLLIYKVSNRFSGVPDRFSGSGSGTDFTLKISRVEAEDVGVYYCSQNTHVPPTFGQGTKVEIERTVAAPSVFIFPPSDEQLKSGTASVVCLLNNFYPREAKVQWKVDNALQSGNSQESVTEQDSKDSTYSLSSTLTLSKADYEKHKVYACEVTHQGLSSPVTKSFNRGEC
17 | 93.7% | GpH7-A5/GpH7-B3 variant K326_20W/GpL16-k0 (antibody, human IgG1, kappa, He Ab; copies: 1 + 1 + 2) heavy 1: not shown heavy 2: not shown light: DIVMTQSPLSLPVTPGEPASISCQASESLVHSNRNTYLHWYLQKPGQSPQLLIYKVSNRFSGVPDRFSGSGSGTDFTLKISRVEAEDVGVYYCSQNTHVPPTFGQGTKVEIERTVAAPSVFIFPPSDEQLKSGTASVVCLLNNFYPREAKVQWKVDNALQSGNSQESVTEQDSKDSTYSLSSTLTLSKADYEKHKVYACEVTHQGLSSPVTKSFNRGEC
18 | 101% | GpH7-A5/GpH7-B3 variant I332_19Q/GpL16-k0 (antibody, human IgG1, kappa, He Ab; copies: 1 + 1 + 2) heavy 1: not shown heavy 2: not shown light: DIVMTQSPLSLPVTPGEPASISCQASESLVHSNRNTYLHWYLQKPGQSPQLLIYKVSNRFSGVPDRFSGSGSGTDFTLKISRVEAEDVGVYYCSQNTHVPPTFGQGTKVEIERTVAAPSVFIFPPSDEQLKSGTASVVCLLNNFYPREAKVQWKVDNALQSGNSQESVTEQDSKDSTYSLSSTLTLSKADYEKHKVYACEVTHQGLSSPVTKSFNRGEC
19 | 140% | GpH7-A5/GpH7-B3 variant K326_14T/GpL16-k0 (antibody, human IgG1, kappa, He Ab; copies: 1 + 1 + 2) heavy 1: not shown heavy 2: not shown light: DIVMTQSPLSLPVTPGEPASISCQASESLVHSNRNTYLHWYLQKPGQSPQLLIYKVSNRFSGVPDRFSGSGSGTDFTLKISRVEAEDVGVYYCSQNTHVPPTFGQGTKVEIERTVAAPSVFIFPPSDEQLKSGTASVVCLLNNFYPREAKVQWKVDNALQSGNSQESVTEQDSKDSTYSLSSTLTLSKADYEKHKVYACEVTHQGLSSPVTKSFNRGEC
20 | 135% | GpH7-A5/GpH7-B3 variant K326_03V/GpL16-k0 (antibody, human IgG1, kappa, He Ab; copies: 1 + 1 + 2) heavy 1: not shown heavy 2: not shown light: DIVMTQSPLSLPVTPGEPASISCQASESLVHSNRNTYLHWYLQKPGQSPQLLIYKVSNRFSGVPDRFSGSGSGTDFTLKISRVEAEDVGVYYCSQNTHVPPTFGQGTKVEIERTVAAPSVFIFPPSDEQLKSGTASVVCLLNNFYPREAKVQWKVDNALQSGNSQESVTEQDSKDSTYSLSSTLTLSKADYEKHKVYACEVTHQGLSSPVTKSFNRGEC
21 | 110% | GpH7-A5/GpH7-B3 variant I332_14T/GpL16-k0 (antibody, human IgG1, kappa, He Ab; copies: 1 + 1 + 2) heavy 1: not shown heavy 2: not shown light: DIVMTQSPLSLPVTPGEPASISCQASESLVHSNRNTYLHWYLQKPGQSPQLLIYKVSNRFSGVPDRFSGSGSGTDFTLKISRVEAEDVGVYYCSQNTHVPPTFGQGTKVEIERTVAAPSVFIFPPSDEQLKSGTASVVCLLNNFYPREAKVQWKVDNALQSGNSQESVTEQDSKDSTYSLSSTLTLSKADYEKHKVYACEVTHQGLSSPVTKSFNRGEC
22 | 114% | GpH7-A5/GpH7-B3 variant K326_01G/GpL16-k0 (antibody, human IgG1, kappa, He Ab; copies: 1 + 1 + 2) heavy 1: not shown heavy 2: not shown light: DIVMTQSPLSLPVTPGEPASISCQASESLVHSNRNTYLHWYLQKPGQSPQLLIYKVSNRFSGVPDRFSGSGSGTDFTLKISRVEAEDVGVYYCSQNTHVPPTFGQGTKVEIERTVAAPSVFIFPPSDEQLKSGTASVVCLLNNFYPREAKVQWKVDNALQSGNSQESVTEQDSKDSTYSLSSTLTLSKADYEKHKVYACEVTHQGLSSPVTKSFNRGEC
